Results taken from US20190248900A1 (Y BIOLOGICS, published 2019).
Where a chain is given by its changes, count along the chain named.

T1: BTN2A1 (Homo sapiens (Human), UniProt Q7KYR7 29-248)
T1 sequence: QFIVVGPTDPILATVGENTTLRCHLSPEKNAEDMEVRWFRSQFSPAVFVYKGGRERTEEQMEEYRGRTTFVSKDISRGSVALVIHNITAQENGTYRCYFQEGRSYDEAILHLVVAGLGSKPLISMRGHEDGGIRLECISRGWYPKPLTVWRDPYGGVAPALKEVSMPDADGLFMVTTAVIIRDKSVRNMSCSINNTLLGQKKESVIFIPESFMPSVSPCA

T2: FSTL1 (Homo sapiens (Human), UniProt Q12841 21-308)
T2 sequence: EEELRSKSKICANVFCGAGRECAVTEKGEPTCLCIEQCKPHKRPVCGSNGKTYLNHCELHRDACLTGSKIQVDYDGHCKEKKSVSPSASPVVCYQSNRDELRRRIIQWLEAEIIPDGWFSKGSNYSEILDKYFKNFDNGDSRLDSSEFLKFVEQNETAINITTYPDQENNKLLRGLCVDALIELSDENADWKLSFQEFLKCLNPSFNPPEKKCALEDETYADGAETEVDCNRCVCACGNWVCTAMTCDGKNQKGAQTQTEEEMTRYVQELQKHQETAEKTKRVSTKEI

T3: CD209 (Homo sapiens (Human), UniProt Q9NNX6 59-404)
T3 sequence: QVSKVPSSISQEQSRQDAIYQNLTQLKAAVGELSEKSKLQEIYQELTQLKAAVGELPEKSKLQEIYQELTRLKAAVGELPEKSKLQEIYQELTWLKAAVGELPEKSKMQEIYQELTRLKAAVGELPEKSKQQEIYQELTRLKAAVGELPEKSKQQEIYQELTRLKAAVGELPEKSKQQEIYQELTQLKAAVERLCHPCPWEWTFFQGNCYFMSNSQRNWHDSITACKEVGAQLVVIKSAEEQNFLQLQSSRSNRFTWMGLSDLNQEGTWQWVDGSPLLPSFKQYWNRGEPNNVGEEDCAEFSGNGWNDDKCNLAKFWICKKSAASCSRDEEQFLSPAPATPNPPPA

T4: OGN (Homo sapiens (Human), UniProt P20774 21-298)
T4 sequence: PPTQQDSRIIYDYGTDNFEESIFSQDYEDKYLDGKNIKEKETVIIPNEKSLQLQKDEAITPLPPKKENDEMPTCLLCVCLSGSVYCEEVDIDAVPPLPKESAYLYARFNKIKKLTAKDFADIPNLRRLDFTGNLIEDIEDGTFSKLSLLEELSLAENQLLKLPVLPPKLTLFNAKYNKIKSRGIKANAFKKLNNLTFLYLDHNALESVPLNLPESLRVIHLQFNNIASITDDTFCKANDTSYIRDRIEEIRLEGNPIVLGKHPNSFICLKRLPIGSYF

T5: CD86 (Homo sapiens (Human), UniProt P42081 24-247)
T5 sequence: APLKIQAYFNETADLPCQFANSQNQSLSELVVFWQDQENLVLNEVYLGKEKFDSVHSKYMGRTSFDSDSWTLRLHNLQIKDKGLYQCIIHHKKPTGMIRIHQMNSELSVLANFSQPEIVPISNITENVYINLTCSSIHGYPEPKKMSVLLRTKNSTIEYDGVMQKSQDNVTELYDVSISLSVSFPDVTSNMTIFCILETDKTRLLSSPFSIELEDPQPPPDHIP

T6: RTN4RL1 (Homo sapiens (Human), UniProt Q86UN2 25-420)
T6 sequence: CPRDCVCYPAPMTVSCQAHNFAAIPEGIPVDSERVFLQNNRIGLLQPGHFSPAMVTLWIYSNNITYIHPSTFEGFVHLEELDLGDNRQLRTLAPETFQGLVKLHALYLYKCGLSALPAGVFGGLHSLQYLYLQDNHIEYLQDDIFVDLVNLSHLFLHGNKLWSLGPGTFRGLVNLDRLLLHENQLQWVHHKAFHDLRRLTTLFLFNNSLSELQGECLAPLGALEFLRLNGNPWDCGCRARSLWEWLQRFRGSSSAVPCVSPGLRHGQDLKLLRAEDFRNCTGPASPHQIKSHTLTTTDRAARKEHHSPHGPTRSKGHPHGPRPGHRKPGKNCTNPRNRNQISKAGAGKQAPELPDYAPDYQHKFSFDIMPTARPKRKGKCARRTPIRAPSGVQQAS

B1: PD1-41C9 (antibody, V domains shown)
VH: QMQLVESGGGVVQPGRSLRLSCAASGFTFSSYAMHWVRQAPGKGLEWVAVISYDGSNKYYADSVKGRFTISRDNSKNTLYLQMNRLRSEDTAVYYCTTTTFDSWGQGTLITVSS
VL: DIVMTQTPLSLPVTPGEAASISCRSSQSLLDSEDGNTYLDWYLQKPGQSPQLLIYTLSHRASGVPDRFSGSGSGTDFTLKISRVAAEDVGLYYCLQRMGFPYTFGQGTKLDIK
notes: scFv-phage in the screening ELISA; whole IgG in the other assays
B2: PD1-49A2 (antibody, V domains shown)
VH: B1 VH with M2V, S75P, R85S, S88A, Q106R, I110V
VL: B1 VL with T7S, A18P, L30F, E33D, A85E, L91I, L110V, D111E
notes: scFv-phage in the screening ELISA; whole IgG in the other assays; also called Parent 49A2
B3: PD1-45D6 (antibody, V domains shown)
VH: QVQLVESGGGVVQPGRSLRLSCAASGFTFSSYAMHWVRQVPGKGLEWVAVISYDGNDKYYADSVKGRFTISRDNSKNTLYLQMNSLRAEDTAVYYCVPTTFEYWGQGSQVTVSS
VL: DIVMTQTPLSLPVTPGEAASISCRSSQSLLDSDDGKTYLDWYLQKPGQSPQLLIYTLSYRASGVPDRFSGSGSGTEFNLRISRVEAEDVGIYYCMQRVEFPFTFGQGTKLDIK
notes: as for B1

These binders were tested against T7, human PD-1 (NM_005018.2) over-expressed on cells (human, UniProt Q15116 25-288) (assay: cell-based or functional assay).
T7 sequence (Q15116 25-288): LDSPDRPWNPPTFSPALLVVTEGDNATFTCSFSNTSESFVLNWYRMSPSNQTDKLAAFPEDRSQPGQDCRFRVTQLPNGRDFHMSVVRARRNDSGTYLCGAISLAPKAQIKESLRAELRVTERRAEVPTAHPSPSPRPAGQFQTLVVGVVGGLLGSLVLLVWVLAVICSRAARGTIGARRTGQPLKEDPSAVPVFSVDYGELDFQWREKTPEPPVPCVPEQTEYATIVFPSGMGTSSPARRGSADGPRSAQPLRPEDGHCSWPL
For B1, the EC50 was 3.57 nM. Binder B2 has an EC50 of 2.05 nM. Binder B3 has an EC50 of 1.29 nM.

These binders were tested against T7, human PD-1 (NM_005018.2) over-expressed … (assay: flow cytometry on cells over-expressing human PD-1, Geometric Mean).
Description: 0.5 to 1×10⁶ cells per sample were each prepared from the transformation cell pools highly expressing human PD-1, and antibodies were serially diluted at a constant dilution rate and reacted with the prepared cells at 4° C. for 20 minutes. Then, the cells were washed three times with PBS (#LB001-02, Welgene) containing 2% fetal bovine serum and reacted at 4° C. for 20 minutes with an anti-human IgG antibody (#FI-3000, Vectorlabs) conjugated with a FITC (fluorescein isothiocyanate) fluorescent substance. Then, the cells were subjected to the same washing process as above and then suspended in 0.5 ml of PBS containing 2% FBS (#26140-079, Thermo Fisher) with an FACSCanto II flow cytometer (BD Biosciences, USA) as a flow cytometer.
B1 showed an EC50 of 5.89 nM. Work on B2 yielded an EC50 of 5.07 nM. B3 showed an EC50 of 4.84 nM.

What follows are binders tested against T1, BTN2A1 (assay: ELISA).
B1: no binding (tested: 1 ug/ml). B2: no binding (tested: 1 ug/ml). B3: no binding (tested: 1 ug/ml).

What follows are binders tested against T2, FSTL1 (assay: ELISA).
B1: no binding (tested: 1 ug/ml). B2: no binding (tested: 1 ug/ml). B3: no binding (tested: 1 ug/ml).

What follows are binders tested against DKK3 (Homo sapiens (Human), UniProt Q9UBP4 22-350) (assay: ELISA).
Sequence of DKK3 (Q9UBP4 22-350 limits assumed): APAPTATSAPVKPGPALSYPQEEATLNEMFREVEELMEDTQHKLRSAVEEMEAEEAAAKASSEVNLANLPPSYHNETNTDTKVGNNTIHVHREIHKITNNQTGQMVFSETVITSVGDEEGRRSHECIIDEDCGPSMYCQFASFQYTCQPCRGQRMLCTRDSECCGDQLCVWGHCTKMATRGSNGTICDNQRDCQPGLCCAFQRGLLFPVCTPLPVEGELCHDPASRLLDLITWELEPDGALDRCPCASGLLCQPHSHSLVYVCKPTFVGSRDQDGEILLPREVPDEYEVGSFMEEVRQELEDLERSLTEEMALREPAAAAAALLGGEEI
B1: no binding (tested: 1 ug/ml). B2: no binding (tested: 1 ug/ml). B3: no binding (tested: 1 ug/ml).

These binders were tested against APCDD1 (Homo sapiens (Human), UniProt Q8J025 27-492) (assay: ELISA).
Sequence of APCDD1 (Q8J025 27-492 limits assumed): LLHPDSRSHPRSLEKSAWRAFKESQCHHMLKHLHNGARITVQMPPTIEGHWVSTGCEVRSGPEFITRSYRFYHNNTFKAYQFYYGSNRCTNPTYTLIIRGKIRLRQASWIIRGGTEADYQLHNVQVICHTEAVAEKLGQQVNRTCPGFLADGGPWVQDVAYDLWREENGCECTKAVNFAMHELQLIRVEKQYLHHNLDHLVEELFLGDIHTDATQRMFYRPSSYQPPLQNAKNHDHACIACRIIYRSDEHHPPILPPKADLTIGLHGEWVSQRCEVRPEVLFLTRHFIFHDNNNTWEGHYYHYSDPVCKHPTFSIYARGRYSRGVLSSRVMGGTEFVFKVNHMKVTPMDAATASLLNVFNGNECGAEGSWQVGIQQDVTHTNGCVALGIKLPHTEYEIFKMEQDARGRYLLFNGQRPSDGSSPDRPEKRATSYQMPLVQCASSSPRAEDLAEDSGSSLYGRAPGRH
B1: no binding (tested: 1 ug/ml). B2: no binding (tested: 1 ug/ml). B3: no binding (tested: 1 ug/ml).

The binders below were run against T3, CD209 (assay: ELISA).
B1: no binding (tested: 1 ug/ml). B2: no binding (tested: 1 ug/ml). B3: no binding (tested: 1 ug/ml).

The binders below were run against T4, OGN (assay: ELISA).
B1: no binding (tested: 1 ug/ml). B2: no binding (tested: 1 ug/ml). B3: no binding (tested: 1 ug/ml).

What follows are binders tested against LRRN1 (Homo sapiens (Human), UniProt Q6UXK5 26-631) (assay: ELISA).
Sequence of LRRN1 (Q6UXK5 26-631 limits assumed): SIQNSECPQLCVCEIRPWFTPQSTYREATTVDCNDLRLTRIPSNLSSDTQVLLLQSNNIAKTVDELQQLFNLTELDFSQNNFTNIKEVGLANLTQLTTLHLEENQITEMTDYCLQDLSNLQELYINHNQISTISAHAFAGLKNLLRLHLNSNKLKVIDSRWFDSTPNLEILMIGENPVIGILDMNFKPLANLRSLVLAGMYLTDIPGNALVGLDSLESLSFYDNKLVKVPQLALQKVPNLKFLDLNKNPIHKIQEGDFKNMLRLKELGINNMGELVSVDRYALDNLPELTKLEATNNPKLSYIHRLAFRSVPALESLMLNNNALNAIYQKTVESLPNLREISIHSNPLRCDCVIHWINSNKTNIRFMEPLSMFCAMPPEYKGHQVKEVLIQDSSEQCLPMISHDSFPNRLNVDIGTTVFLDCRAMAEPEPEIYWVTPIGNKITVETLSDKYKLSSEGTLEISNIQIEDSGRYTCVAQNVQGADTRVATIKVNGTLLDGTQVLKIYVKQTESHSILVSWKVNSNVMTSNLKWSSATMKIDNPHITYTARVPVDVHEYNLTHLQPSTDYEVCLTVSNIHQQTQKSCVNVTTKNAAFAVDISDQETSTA
B1: no binding (tested: 1 ug/ml). B2: no binding (tested: 1 ug/ml). B3: no binding (tested: 1 ug/ml).

The binders below were run against T5, CD86 (assay: ELISA).
B1: no binding (tested: 1 ug/ml). B2: no binding (tested: 1 ug/ml). B3: no binding (tested: 1 ug/ml).

These binders were tested against T6, RTN4RL1 (assay: ELISA).
B1: no binding (tested: 1 ug/ml). B2: no binding (tested: 1 ug/ml). B3: no binding (tested: 1 ug/ml).
